The target of this experiment is Furin (literature) (UniProt P09958).
Sequence of Furin (literature) (P09958 108-715): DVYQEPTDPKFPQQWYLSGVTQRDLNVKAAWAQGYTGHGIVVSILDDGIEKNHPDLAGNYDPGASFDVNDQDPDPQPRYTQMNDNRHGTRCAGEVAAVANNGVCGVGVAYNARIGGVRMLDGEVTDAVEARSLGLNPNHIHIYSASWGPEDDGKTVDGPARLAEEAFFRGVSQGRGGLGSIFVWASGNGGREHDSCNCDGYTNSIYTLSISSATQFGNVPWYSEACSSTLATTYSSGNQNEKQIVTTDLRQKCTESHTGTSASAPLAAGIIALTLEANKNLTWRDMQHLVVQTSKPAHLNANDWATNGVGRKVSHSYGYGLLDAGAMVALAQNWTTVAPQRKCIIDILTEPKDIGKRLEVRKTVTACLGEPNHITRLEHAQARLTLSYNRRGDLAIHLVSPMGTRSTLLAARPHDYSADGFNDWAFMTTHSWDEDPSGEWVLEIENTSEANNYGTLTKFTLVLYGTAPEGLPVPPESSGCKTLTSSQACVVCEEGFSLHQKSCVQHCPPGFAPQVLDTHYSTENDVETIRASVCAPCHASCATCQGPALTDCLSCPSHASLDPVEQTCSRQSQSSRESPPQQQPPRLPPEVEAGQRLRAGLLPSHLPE

B1: Proteinase inhibitor 8 (PI8) (protein)
chain: MDDLCEANGTFAISLFKILGEEDNSRNVFFSPMSISSALAMVFMGAKGSTAAQMSQALCLYKDGDIHRGFQSLLSEVNRTGTQYLLRTANRLFGEKTCDFLPDFKEYCQKFYQAELEELSFAEDTEECRKHINDWVAEKTEGKISEVLDAGTVDPLTKLVLVNAIYFKGKWNEQFDRKYTRGMLFKTNEEKKTVQMMFKEAKFKMGYADEVHTQVLELPYVEEELSMVILLPDDNTDLAVVEKALTYEKFKAWTNSEKLTKSKVQVFLPRLKLEESYDLEPFLRRLGMIDAFDEAKADFSGMSTEKNVPLSKVAHKCFVEVNEEGTEAAAATAVVRNSRCSRMEPRFCADHPFLFFIRHHKTNCILFCGRFSSP
Take B1: affinity was put at a Ki of 0.0538 nM.

The Ki is the equilibrium dissociation constant of an inhibitor or competing ligand from its target.

For the origin of these results see US7033991 (dated 2006).
